# According to article PMC5921417, “The β-glucosidase secreted by Talaromyces amestolkiae under carbon starvation: a versatile catalyst for biofuel production from plant and algal biomass” (Biotechnology for Biofuels, 2018):
# Experiments:
# [1] = molecular target: β-glucosidase BGL-3 from Talaromyces amestolkiae (native enzyme) (Talaromyces amestolkiae); assay: SEC; Superose 12 column; native purified BGL-3; mass around 222 kDa against 107.0 kDa for the monomer by MALDI-TOF
# [2] = tested on: T1, O=[N+]([O-])c1ccc(O[C@@H]2O[C@H](CO)[C@@H](O)[C@H](O)[C@H]2O)cc1; assay: purified protein; format: biochemical, Talaromyces amestolkiae; settings: sodium acetate 100 mM pH 4.0, 70 °C (standard reaction), 0.1% BSA
# T1 construct: native enzyme secreted by T. amestolkiae, purified from culture (Mandels medium, glucose); signal peptide removed; glycosylated; gene codes for 857 aa; non-covalent dimer about 222 kDa; mature N-terminus YSPPAYP deduced from the cloning primer
# [3] = tested on: O=[N+]([O-])c1ccccc1O[C@@H]1O[C@H](CO)[C@@H](O)[C@H](O)[C@H]1O; assay: purified protein; settings: sodium acetate 100 mM pH 4.0, 70 °C (standard reaction), 0.1% BSA
stoichiometry N [1],Substance,Km [2] [µM],Vmax [2] [µmol/min/mg],kcat [2] [s⁻¹],kcat/Km [2] [M⁻¹ s⁻¹],Km [3] [µM],Vmax [3] [µmol/min/mg],kcat [3] [s⁻¹],kcat/Km [3] [M⁻¹ s⁻¹]
2,β-glucosidase BGL-3 from Talaromyces amestolkiae (native enzyme),–,–,–,–,–,–,–,–
–,BGL-3 (β-glucosidase g377) (Talaromyces amestolkiae),140 ± 100,381,1360,9.71e+06,140 ± 100,142,507,3.43e+06
